Literature values as cited in patent publication US12305200B2, “Methods and compositions for vault nanoparticle immobilization of therapeutic molecules and for vault targeting” (AUKERA, INC., priority 2017, dated 2025).

Target: GRP-R (Homo sapiens, UniProt P30550)
Settings: Accardo et al., EJNMMI Research 2016

Chain of GRP-R (P30550 whole entry): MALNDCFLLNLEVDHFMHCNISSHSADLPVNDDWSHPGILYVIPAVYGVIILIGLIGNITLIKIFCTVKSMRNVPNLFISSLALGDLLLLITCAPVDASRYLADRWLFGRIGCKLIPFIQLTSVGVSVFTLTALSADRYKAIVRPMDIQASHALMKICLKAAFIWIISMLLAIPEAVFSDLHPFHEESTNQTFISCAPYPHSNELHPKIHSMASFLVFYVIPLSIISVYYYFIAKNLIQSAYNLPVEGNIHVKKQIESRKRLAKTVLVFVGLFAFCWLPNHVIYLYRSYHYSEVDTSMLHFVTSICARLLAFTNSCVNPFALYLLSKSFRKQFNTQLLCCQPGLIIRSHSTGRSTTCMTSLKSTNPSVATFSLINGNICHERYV

affinity for the GRP-R: has been found to have affinity
Substance: Gin-Trp-Ala-Val-Gly-His-Leu-Met (SEQ ID NO.: 3)-NH2 [8-amino acid peptide of the ligand GRP]
